Results as given in paper PMC10279719 (Nature Communications, 2023).

Legend:
[1] = molecular target: T1, CrkII^NSH3 (Homo sapiens, UniProt P46108); assay: SPR, CrkII NSH3 binding to immobilised PEAK proteins; settings: read-out: CrkII NSH3 SPR KD; interactor as analyte over biotinylated PEAK protein captured with biotin CAPture kit; Biacore 8K+, HBS-TP, 20 °C; steady-state fit; mean ± SD (N = 2); read-out: CrkII-SH2 SPR KD
T1 construct: CrkII^NSH3; UniProt P46108-1, residues 134–191; 8-His tag with TEV protease cleavage site (N); made in house; host or cells: E. coli C41 (DE3)
T1 sequence (P46108 134-191): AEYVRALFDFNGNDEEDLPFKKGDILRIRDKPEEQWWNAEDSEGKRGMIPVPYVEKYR
Method: (§1) SPR binding studies of PEAK PRM peptides to CrkII^NSH3 were performed using a Biacore S200 Instrument (Cytiva). Purified CrkII^NSH3 was diluted to 5 µg ml^−1 in 10 mM sodium acetate pH 4.0 and amine coupled at 25 °C to a Series S CM5 sensor chip, in HBS-N running buffer (20 mM HEPES pH 7.4, 150 mM NaCl) to a final immobilization level of 1100–1400 response units (RU), followed by surface deactivation using 1 M ethanolamine. A blank activation/deactivation was used for the reference surface. Peptide binding studies were performed at 20 °C in HBS-TP running buffer (20 mM HEPES pH 7.4, 150 mM NaCl, 1 mM TCEP, 0.005% (v/v) Tween-P20). […] Peptide stocks were further diluted to in running buffer to 10 or 20 µM and prepared as a 11-point concentration series (2-fold serial dilution, […] for PEAK PRM peptides, or 20 µM–20 nM for PEAK tandem motif peptides). Samples were injected in a multi-cycle run (flow rate 30 µl min^−1, contact time of 60 s, dissociation 120 s) without regeneration. Sensorgrams were double referenced, and steady-state binding data fitted using a 1:1 binding model using Biacore S200 Evaluation Software (Cytiva, v. 1.1).
(§2) SPR binding studies of PEAK proteins to full length CrkII/Grb2 and sub-domains were performed using a Biacore 8K+ Instrument (Cytiva) and analyzed using Biacore Insight Evaluation Software (v. 3.0.12.15655). […] Binding studies and steady-state data analysis were performed as described for CrkII^NSH3 with the inclusion of an additional surface regeneration step (60 s injection of 1 M NaCl) between cycles.

[2] = molecular target: T2, CrkII^SH2 (Homo sapiens, UniProt P46108); assay: SPR, CrkII SH2 binding to immobilised PEAK proteins; settings: interactor as analyte over biotinylated PEAK protein (biotin CAPture); Biacore 8K+, HBS-TP with 500 mM NaCl, 20 °C; steady-state fit; mean ± S.E.M. (N = 3)
T2 construct: CrkII^SH2; UniProt P46108-1, residues 6–120; 8-His tag with TEV protease cleavage site (N); made in house; host or cells: E. coli C41 (DE3)
T2 sequence (P46108 6-120): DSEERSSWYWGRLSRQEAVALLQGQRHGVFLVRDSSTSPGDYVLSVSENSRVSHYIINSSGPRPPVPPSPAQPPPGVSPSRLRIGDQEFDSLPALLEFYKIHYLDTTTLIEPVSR
Method: as §1, §2

[3] = molecular target: T3, CrkII^FL dimer (Homo sapiens, UniProt P46108); assay: SPR, CrkII FL dimer binding to immobilised PEAK proteins; settings: interactor as analyte over biotinylated PEAK protein (biotin CAPture); Biacore 8K+, HBS-TP with 500 mM NaCl, 20 °C; steady-state fit; mean ± SD (N = 2)
T3 construct: full length CrkII (CrkII^FL; UniProt P46108-1, residues 1–330); 8-His tag with TEV protease cleavage site (N); made in house; host or cells: E. coli C41 (DE3)
T3 sequence (P46108 whole entry, the tested form may be a part): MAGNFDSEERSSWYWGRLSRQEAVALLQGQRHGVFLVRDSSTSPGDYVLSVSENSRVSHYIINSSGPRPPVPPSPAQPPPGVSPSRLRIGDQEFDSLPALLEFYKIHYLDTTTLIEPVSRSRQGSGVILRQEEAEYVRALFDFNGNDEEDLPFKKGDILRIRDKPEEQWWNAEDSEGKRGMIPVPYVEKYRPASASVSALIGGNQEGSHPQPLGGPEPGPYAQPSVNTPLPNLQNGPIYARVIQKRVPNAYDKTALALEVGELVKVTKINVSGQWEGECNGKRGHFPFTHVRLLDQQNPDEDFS
Method: as §1
(§3) SPR binding studies of PEAK proteins to full length CrkII/Grb2 and sub-domains were performed using a Biacore 8K+ Instrument (Cytiva) and analyzed using Biacore Insight Evaluation Software (v. 3.0.12.15655). […]

[4] = molecular target: 14-3-3ɣ; assay: SPR, 14-3-3ɣ binding to immobilised PEAK proteins; set-up: species or system human; settings: 14-3-3ɣ analyte 0.46–1000 nM, multi-cycle, over immobilised biotinylated PEAK protein; Biacore 8K+, 20 °C; KD only an estimate (bivalent analyte model); N = 3
Method: PEAK proteins and adapters proteins (full length or individual domains) were biotinylated using EZ-Link™ NHS-PEG4-Biotin (Thermo Fisher) at a 1:1 molar ratio (100 µM) for 1 h at room temperature, then excess biotin was removed by buffer exchange using a Zeba™ Spin Desalting Column (Thermo Fisher) into HBS-T buffer (20 mM HEPES pH 7.4, 150 mM NaCl, 1 mM TCEP).
SPR binding studies of PEAK proteins to full length CrkII/Grb2 and sub-domains were performed using a Biacore 8K+ Instrument (Cytiva) and analyzed using Biacore Insight Evaluation Software (v. 3.0.12.15655). […] Biotinylated PEAK proteins (with or without Src phosphorylation; 500 nM in HBS-TP) were immobilized using a biotin CAPture kit (Cytiva) in HBS-TP running buffer at 20 °C. Binding studies and steady-state data analysis were performed as described for CrkII^NSH3 with the inclusion of an additional surface regeneration step (60 s injection of 1 M NaCl) between cycles. For Grb2^FL, Grb2^SH2, CrkII^SH2, CrkII^FL monomer and CrkII^FL dimer, to reduce nonspecific interactions the HBS-TP running buffer was supplemented with additional NaCl to a final concentration of 500 mM.
Binding studies for 14-3-3ɣ were undertaken in the same way in multi cycle mode (8 point, 3-fold serial dilution series, 0.46–1000 nM, 60 s contact time, 300 s dissociation).

[5] = molecular target: T4, CrkII^FL monomer (Homo sapiens, UniProt P46108); assay: SPR, CrkII FL monomer binding to immobilised PEAK proteins; settings: interactor as analyte over biotinylated PEAK protein (biotin CAPture); Biacore 8K+, HBS-TP with 500 mM NaCl, 20 °C; steady-state fit; mean ± SD (N = 2)
T4 construct: full length CrkII (CrkII^FL; UniProt P46108-1, residues 1–330); 8-His tag with TEV protease cleavage site (N); made in house; host or cells: E. coli C41 (DE3)
T4 sequence (P46108 whole entry, the tested form may be a part): as above
Method: as §1, §3

PEAK3-FL E.coli (+ Src phosphorylation): E. coli PEAK3 (1–473) phosphorylated with recombinant Src kinase
Kd [1]: 13.1 µM
SPR KD, CrkII-SH2 [2]: No binding
Kd [3]: 2.11 µM
SPR KD, 14-3-3ɣ [4]: No binding
Kd [5]: 2.6 µM
